Measured values taken from paper PMC8906540 (RNA, 2022).

Molecular target: the molecule itself
Assay: SEC

B1: YloC protein of Bacillus subtilis, purified, 8×His-Sumo tag removed (enzyme, UniProt O34441 1-291, looked up)
chain: MIRSMTGFGSASKTQDDLSVSVELKSVNYRFKEVNARLPRPLLYFEDKLKQTILQHIQRGRIELFVSVDSDMLVEKRLEIDWPLLDEFVAAARDMKKRYQLSAEPDVMDFFKLDHVVQVHEEQTQNDKLEALIIDAAEEAVKGLCEMREKEGLLLAKDCLMHIDQLEELVRETELLAADVVSRYRERLYARIKEWTEDVLDESRLVTECAIFADRSDITEEITRLKSHFAQFRDILASGGAVGRKLDFLVQELNREANTIGSKANDHQITKLVVEMKSSIEKIKEQVQNIE
stoichiometry N: ~6
